Source: patent publication US20230117205A1, “B7-H4 ANTIBODY-DRUG CONJUGATES FOR THE TREATMENT OF CANCER” (SEAGEN INC., priority 2021, published 2023)

Columns and labels:
[1] = system: B7-H4 expression on OVCAR3 tumors; assay: IHC of B7-H4 on treated OVCAR3 xenograft tumors; type: in vivo, SCID mice; conditions: OVCAR3 tumors after treatment
Method: Antigen retrieval was performed using a Decloaking Chamber NxGen Biocare and the 110° C. program with Diva Retrieval solution. Slides were stained on the IntelliPath Automated stainer per the following protocol: Remove hot containers from the decloaking chamber and rinse in deionized water. Place slides in TBST prior to adding to IntelliPath. Hydrate slides on stainer prior to automation Add 300 uL/slide Peroxidaze (Biocare #PX968) and incubate 10 minutes. Wash slides in TBST. Add 300 uL/slide Sniper block (Biocare #B5966) and incubate 10 minutes. Blot off blocking solution. Add 300 uL/slide primary antibody and incubate 1 hour. Wash slides twice in TBST. Add 300 uL/slide HRP polymer and incubate 30 minutes. Wash slides twice in TBST. Add 300 uL/slide DAB (Vector #sk-4103) and incubate 5 minutes. Wash in TBST. Add 300 uL/slide hematoxylin and incubate 2 minutes. Wash in deionized water. Dehydrate slides by placing them in the oven for 30 minutes. Place coverslip on slides. Images were analyzed using Halo image analysis software (Indica Labs). The H-score was calculated according to the following equation: (3×% Strong Signal)+(2×% Moderate Signal)+(Weak Signal). […]

FcγRIIa = molecular target: T1, FcγRIIa (Homo sapiens, UniProt P12318); assay: FcγR Jurkat NFAT-luciferase reporter cell assay with SKBR3 target cells; type: cell-based
T1 construct: expressed in transfected cells; host or cells: Jurkat (NFAT-luciferase reporter)
T1 sequence (P12318 34-317): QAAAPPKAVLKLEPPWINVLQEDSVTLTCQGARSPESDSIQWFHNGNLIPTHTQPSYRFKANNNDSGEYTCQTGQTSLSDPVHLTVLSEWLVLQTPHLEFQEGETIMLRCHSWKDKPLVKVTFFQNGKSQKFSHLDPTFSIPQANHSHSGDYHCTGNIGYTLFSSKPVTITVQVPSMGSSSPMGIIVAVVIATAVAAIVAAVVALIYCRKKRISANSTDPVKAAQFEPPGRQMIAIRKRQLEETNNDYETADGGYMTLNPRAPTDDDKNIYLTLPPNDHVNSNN
Method: (§1) Cellular FcγR signaling was measured in a cell-based assay that uses SKBR3 target cells that endogenously express B7-H4 and Jurkat effector cells engineered to express FcγRI, RIIa, or RIII and an NFAT (nuclear factor of activated T cells) driven luciferase reporter gene. […] The luciferase signal is proportional to the degree of FcγR-induced effector cell activation and serves as a surrogate for ADCC (FcγRIII) or ADCP (FcγRI/IIa).
(§2) Specifically, Jurkat effector cells engineered to express FcγRI, RIIa, or RIII and an NFAT (nuclear factor of activated T cells) driven luciferase reporter gene were thawed and cultured in NFAT reporter cell medium (RPMI 1640 Medium (Gibco #11875-093) supplemented with 4% HyClone™ Fetal Bovine Serum, Super Low IgG (Gibco #A33819-01), 1× Penicillin-Streptomycin (Gibco #15140-122), 1×MEM nonessential amino acids (Gibco #11140-050), 1× L-Glutamine (Gibco #25030-081), 1× Sodium pyruvate (Gibco #11360-070), Hygromycin (Invitrogen #10687), Antibiotic G-418 sulfate solution (Promega #V8091), HEPES (Gibco #15630)). The Jurkat FcγR signaling assay was then performed as follows:
(§3) The day before the assay, target SKBR3 cells were lifted using Versene (Gibco #15040-066), washed twice with PBS, and plated at 1.2×10^4 cells per well in 90 μL RPMI 1640 containing 10% low IgG FBS and penicillin/streptomycin in black-walled 96-well plates (Corning #3603). The following day, NFAT assay buffer was prepared by adding 4 mL low IgG serum to 100 mL of RPMI 1640, mixed, and warmed to 37° C. NFAT assay buffer was used to resuspend all cells and antibody dilutions. Stock dilution plates (10×) of each antibody were prepared at 100, 30, 10, 3, 1, 0.3, 0.1, 0.03, 0.01, and 0.003 μg/mL. […] Effector cells were counted, washed twice in PBS, and resuspended at 1×10^6 cells/mL in NFAT assay buffer. […] Luminescence was measured for all samples with the Envision 96 CTG protocol (Envision plate reader, PerkinElmer) after mixing on a shaker (covered with foil) for at least 5 minutes. Background (no cells) signal was subtracted from the raw luminescence signal prior to graphing.

FcγRI = molecular target: T2, FcγRI (Homo sapiens, UniProt P12314); assay: as above; type: cell-based
T2 construct: expressed in transfected cells; host or cells: Jurkat (NFAT-luciferase reporter)
T2 sequence (P12314 16-374): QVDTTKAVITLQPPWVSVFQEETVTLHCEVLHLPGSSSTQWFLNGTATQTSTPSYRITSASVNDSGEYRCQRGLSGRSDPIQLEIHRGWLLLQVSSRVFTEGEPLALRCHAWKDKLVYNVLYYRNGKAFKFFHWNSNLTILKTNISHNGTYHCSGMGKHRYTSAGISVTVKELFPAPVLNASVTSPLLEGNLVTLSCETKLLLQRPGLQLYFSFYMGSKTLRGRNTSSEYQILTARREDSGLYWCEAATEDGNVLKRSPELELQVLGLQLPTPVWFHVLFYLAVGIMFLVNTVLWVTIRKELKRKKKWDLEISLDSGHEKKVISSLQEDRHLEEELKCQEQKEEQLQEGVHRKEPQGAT
Method: as §1, §2, §3

FcγRIII = molecular target: T3, FcγRIII (Homo sapiens, UniProt P08637); assay: as above; type: cell-based
T3 construct: expressed in transfected cells; host or cells: Jurkat (NFAT-luciferase reporter)
T3 sequence (P08637 17-254): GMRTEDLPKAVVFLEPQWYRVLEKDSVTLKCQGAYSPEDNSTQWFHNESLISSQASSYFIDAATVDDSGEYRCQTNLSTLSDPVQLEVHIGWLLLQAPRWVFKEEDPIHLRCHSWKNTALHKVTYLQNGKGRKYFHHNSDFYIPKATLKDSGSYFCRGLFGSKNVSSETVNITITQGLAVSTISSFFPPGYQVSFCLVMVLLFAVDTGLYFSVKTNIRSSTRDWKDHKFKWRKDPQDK
Method: as §1, §2, §3

[2] = molecular target: T4, recombinant human B7-H4 protein (Homo sapiens, UniProt Q7Z7D3); assay: BLI binding to recombinant human B7-H4 (monovalent and bivalent formats); conditions: mAb compared with ADC
T4 construct: B7-H4 extracellular domain Phe29-Ala258 with a C-terminal 10-His tag
T4 sequence (Q7Z7D3 29-258): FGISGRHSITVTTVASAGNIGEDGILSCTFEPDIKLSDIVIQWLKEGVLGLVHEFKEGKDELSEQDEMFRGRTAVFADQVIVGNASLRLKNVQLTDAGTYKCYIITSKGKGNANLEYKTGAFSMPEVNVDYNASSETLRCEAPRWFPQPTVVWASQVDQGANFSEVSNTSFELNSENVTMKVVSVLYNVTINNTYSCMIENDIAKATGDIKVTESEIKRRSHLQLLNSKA

## SGN-B7H4V: ADC of fully human IgG1 anti-B7-H4 mAb conjugated to monomethyl auristatin E (MMAE) via a protease-cleavable valine-citrulline linker (vedotin)
[1]
  impact on tumor B7-H4 expression: did not have a significant impact
FcγRIIa
  FcγRIIa-mediated luciferase activity: not FcγRIIa-mediated luciferase activity
FcγRI
  FcγRI-mediated luciferase activity: dose-dependent increase
FcγRIII
  FcγRIII-mediated luciferase activity: dose-dependent increase
[2]
  binding affinities for hB7-H4: similar
